Laboratory results reported in the RNAGym collection of RNA variant scans (doi:10.1073/pnas.2313332121).

B1: TPR t1 (parent)
chain: GACCAAUCUGCCCUCAGAGCUCGAGAACAUCUUCGGAUGCAGAGGAGGCAGGCUUCGGUGGCGCGAUAGCGCCAACGUCCUCAACCUCCAAUGCAUCCCACCACAUGAUGAUGCCUGAAGAGCCUUGGUUUUUUG

Variants of: B1
Assay: polymerase ribozyme fitness, log enrichment relative to wild type (log ratio); higher = more active; in vitro selection for triplet polymerase activity
Method in brief: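 Each subunit of a heterodimeric triplet polymerase ribozyme was mutagenized into a library by PCR, transcribed, and subjected to one round of in vitro selection, run in triplicate. Libraries were annealed with a biotinylated primer, the partner subunit and triplets, incubated frozen at −7 °C, and extended constructs were gel-excised, captured on streptavidin beads and recovered by RT-PCR. Input and output libraries were sequenced on Illumina, keeping genotypes with ≥10 input reads and ≥1 read per output. Fitness is log base 2 of genotype enrichment divided by wild-type enrichment, from inverse-variance-weighted replicate averages.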

Row | Variant | polymerase ribozyme fitness (log ratio)
1 | C20A A37G C49A G63A | -4.85
2 | U21C C56U A84C C98A | -4.77
3 | C20A C31G G39U A46U G47A A100C A108U U125A | -6.51
4 | C20A U125A | -3.22
5 | C20A C34A A41C G69U C73U | -5.14
6 | U21A G60A A74U A100U U125G U132A | -0.987
7 | C22G C86U C123A | -3.08
8 | C20A C40G | -4.64
9 | C20G C115A | -3.94
10 | C20G C115G | -4.85
11 | U21G C73G A83G | -3.58
12 | C20A G52C | -2.97
13 | C20A A46C U78C A111C C114A | -3.99
14 | C20U C56A | -1.52
15 | U21A | -0.29
16 | U21C | -0.0619
17 | U21G | -0.965
18 | U21A A43U C73U A90G | -2.19
19 | U21A A43C C73G U78C | -3.93
20 | U21A G63A | -1.05
21 | C20A A50G G52A C124A | -1.12
22 | C20A G44U | -4.1
23 | C20U G42C C88G U112A G117A | -6
24 | C20A A37U A83C | -3.38

Row | Variant | polymerase ribozyme fitness (log ratio)
25 | C20U U106C | -2.1
26 | U21A G45U C101U U106C | -4.17
27 | U21G G36C C72G | -2.78
28 | C22G A29C C40A G120C | -5.67
29 | U21G C123G | 0.364
30 | C20U U55G | -1.39
31 | C20U C70U | -1.7
32 | U21C A37U | 0.0886
33 | U21A A27C A46G C76G | -2.54
34 | U21A U59A C62A | -3.07
35 | C22G G63A C114U | -3.48
36 | C20U C70U A95G | -1.86
37 | U21A G61A U96C | -0.247
38 | U21C C89A | -1.81
39 | C22G G60U C85A | -4.53
40 | C20A C72U | -2.98
41 | C22G G42C G61U C89U | -5.61
42 | C22A C86G C114U | -5.23
43 | C20G C56G A84U | -4.43
44 | C22G A90G | -3.06
45 | U21C A27U C123U | -4.79
46 | C22A A74U C123A U125G | -5.38
47 | C20A G51A G61C | -6.95
48 | C22G G63C | -4.13

Row | Variant | polymerase ribozyme fitness (log ratio)
49 | U21C C28A G63A U92G C124A G127A | -7.31
50 | U21G G45U U92G | -5.73
51 | C20U U96A | -2.25
52 | C20U A50G | -1.33
53 | C20A G42A G57U A100C | -6.04
54 | U21A A50U C73U C76G C89A | -4.66
55 | C20A A27U A95G U131A | -3.17
56 | C22A G45U C62U C73U | -5.77
57 | C20U C97G | -5.61
58 | C20G G36A A121C | -3.32
59 | U21G C64U C72U C73G | -3.77
60 | C20U G60A G107C G120C | -5.52
61 | C20G A46U C114U | -3.16
62 | C20U C22A | -3.94
63 | C22G C73G U133G | -4.48
64 | G19U U96G C114A | 1.12
65 | U21A U92C U116C A119G | 0.265
66 | C20G G63U C82G G113C G128U | -4.75
67 | C20U G58A C73A G93C G117U | -5.31
68 | C22G A41C G44C G69U C79G A90C | -5.69
69 | C20A G45A | -2.28
70 | C22A C72A C73A | -5.32
71 | C20U G135U | -1.97
72 | C20U A100U | -2

Row | Variant | polymerase ribozyme fitness (log ratio)
73 | U21C G61A C114U U125A | -1.45
74 | U21A A37C A46U G77A C89U U131C | -5.66
75 | C22A G110A | -4.72
76 | C20U G60A C124U | 0.188
77 | U21G A50U G69A A108G G110A U112G | -6.33
78 | C22A G57C C86U | -4.83
79 | C22A C49U C56A U78C G117U | -5.8
80 | C20U G77A U87A G110A | -4.79
81 | C20U A41C C72A C101G | -3.66
82 | C20A A41G C53A G71U U78G | -5.43
83 | C20A C28U G39U G71U C97U C123A | -6.92
84 | C22G A68G | -5.5
85 | U21A C31U U78G C101G U106A G113C | -4.88
86 | U21C U55C G63U A105U | -4.84
87 | C22A G48U C56U | -4.88
88 | U21G A27U G60U C80A C123G | -6.74
89 | U21C U38A C73A C123A | -1.55
90 | C20A G42U G60A | -3.62
91 | C22A C31G A50C C70G A111C | -7.1
92 | C22A A83G | -5.4
93 | U21A A27G G51U U116C | -7.29
94 | C20G G44U C56A A68G C98A C114U | -6.77
95 | C20A C62G G63U C114A G120A | -6.07
96 | C22G C34G C102U C123A | -4.03

Row | Variant | polymerase ribozyme fitness (log ratio)
97 | C20U A43C C82U C98U | -4.43
98 | C20U G63U | -2.43
99 | C20U G39A C56A G69U C94G | -1.55
100 | C20A G44U G69A C86A C123G | -6.49
101 | C20U C124U | -0.364
102 | U21G A50U | -2.82
103 | U21C C64A C99G U112G | -8.45
104 | G19U U96A C114A | 0.905
105 | C20G G44A G120C | -4.1
106 | U21C A111C | 0.739
107 | C20U G69A | -3.34
108 | U21C G48C A90U G117C G127C | -5.55
109 | C22G C70U | -3.87
110 | C20G G48A G52A | -6
111 | C20G C53A | -4.27
112 | C20G C53U | -3.06
113 | C20G C53G | -4.62
114 | C20U G77A | -1.35
115 | C22G C72U U96C C114G C123U G127U | -7.69
116 | U21A A43U G61A C73U A90G | -3.13
117 | C20U G69U G120C | -0.787
118 | C22G A26C G42C A84U | -6.04
119 | C20G C62U C98U A111U G120C | -4.17
120 | C22A A91G | -4.94

Row | Variant | polymerase ribozyme fitness (log ratio)
121 | U21G C72A | -0.561
122 | C22G C82G U96A | -3.98
123 | C20U U54A C73G U133A | -1.99
124 | U21A A29G | -1.38
125 | C20U A46C G69C C101U | -4.11
126 | C20A G61A C80G U109A G113U U133G | -7.36
127 | C22G C73A | -3.17
128 | C20U A43U C114G C123A | -2.41
129 | C20A C53A U59A | -2.85
130 | C20A G120A | -1.89
131 | C22G C40G G65U G69A C99A C101A C123U | -6.38
132 | C20G C40A G58C A121U | -4.66
133 | C22G A26C G39U A50G C72U U112C | -4.01
134 | C20A C70U G93A G113C U132C | -7.65
135 | C22G C64U | -2.83
136 | C22G G61A G93A | -3.75
137 | C20A C28A G36A A90C G110U | -4.25
138 | C20U G57A | -1.75
139 | U21A C49A C56A A121U | 0.0625
140 | C20U C72U C98A | -5.82
141 | U21A A46G G128C G135C | -0.459
142 | C22G G51A G61U U112G | -5.05
143 | C22A A95U | -4.83
144 | U21A C49G U92C C104U | -2.2

Row | Variant | polymerase ribozyme fitness (log ratio)
145 | U21A C62U | -0.421
146 | C22A A29G A50G U116G U129C | -5.9
147 | C20U G57A U78C | -3.25
148 | U21A C62U A119U | -0.733
149 | C20G C56U C72U | -3.6
150 | C20U A105U | -3.87
151 | C20G G39A G57A U109A | -3.93
152 | U21C G71U C86G G117A | -5.6
153 | C22G G69C G77U C101G C115U | -5.91
154 | C20U U38G C62G G120C | -4.8
155 | C22A G45A C53G C88G A111U | -3.89
156 | C20U U33G U59A G107U G110C | -6.84
157 | C20U C40G G63C | -4.09
158 | C20A G77A | -3.54
159 | C20A G77U | -3.11
160 | U21G C102A | -2.91
161 | C20G A46U | -4.99
162 | C20A C72A A118U | -1.46
163 | C20A C89U U130A | -3.54
164 | C20U C72A A119U | -1.58
165 | U21C C56A C70U C82A | -2.18
166 | C20G G45A U130C | -5.42
167 | C20G G120U | -4.25
